Test results from paper PMC6726571.
Read-outs that look alike come from different tables or passages of the source.

T1: SRSF3 (SRp20), recombinant (UniProt P84103 1-164)
T1 sequence: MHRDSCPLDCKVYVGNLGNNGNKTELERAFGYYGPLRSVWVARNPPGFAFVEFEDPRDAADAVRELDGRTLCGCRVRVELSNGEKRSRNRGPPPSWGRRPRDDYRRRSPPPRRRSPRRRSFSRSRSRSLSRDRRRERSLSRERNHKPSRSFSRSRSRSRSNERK

B1: CPEB2 exon 4 WT RNA, biotinylated (ssRNA)
RNA: GUGAGAUCUAGUUUGCAGUUGCCAGCUUGGGGCUCAGAUUCACUCCAAGAUAGUUGGUGCACUGCAGCCGGAACAUCCAGAAUAGACCAG
B2: CPEB2 exon 4 MUT RNA (CAUCC to GAGUC), biotinylated (ssRNA)
RNA: GUGAGAUCUAGUUUGCAGUUGCCAGCUUGGGGCUCAGAUUCACUCCAAGAUAGUUGGUGCACUGCAGCCGGAAGAGUCAGAAUAGACCAG

Experiments:
[1] = target: T1, SRSF3 (SRp20), recombinant; experiment: pull-down
[2] = target: T1, SRSF3 (SRp20), recombinant; experiment: pull-down; remark: listed apart in the source

Binder | binding result [1] | binding result [2]
B1 | binds | –
B2 | – | no binding
